From patent US12551573B2, “Compositions and methods for the targeting of PCSK9” (Scribe Therapeutics Inc., priority 2022, dated 2026)

What was measured:
B2M locus [1] = test: B2M reactivation by 5-azadC (DNMT1 inhibitor) in transfected HEK293T cells; conditions: B2M-targeting gRNA, 5-azadC 0-20 uM
Experimental: These transfected HEK293T cells were subsequently re-seeded at ˜30,000 cells well of a 96-well plate and were treated with 5-aza-2′-deoxycytidine (5-azadC), a DNMT1 inhibitor, at concentrations ranging from 0 μM to 20 μM. […] Treatments for each dose of 5-azadC for each experimental condition were performed in triplicates.

B2M locus [2] = test: B2M repression (HLA-negative cells by flow cytometry) in HEK293T cells transfected with LTRP plasmids; format: cell-based, human; conditions: for Mean % HLA-negative cells: HEK293T cells, B2M-targeting spacer 7.37
Experimental: Each construct was tested in triplicate.
Each construct was tested in triplicate. […] Cells were harvested for repression analysis at day 5, day 12, day 21, and day 51 post-transfection.
Each construct was tested in triplicate. […] Cells were harvested for repression analysis at day 8, day 13, day 20, and day 27 post-transfection. […] In addition, cells were also harvested on day 5 post-transfection for gDNA extraction for bisulfite sequencing to assess off-target methylation at the non-targeted VEGFA locus, which was performed using similar methods as described in Example 13.
HEK293T cells were transfected as described in Example 14, except that the cells were transfected with 50 ng each of a plasmid encoding the LTRP construct and a plasmid encoding the gRNA. […] 72 of the 95 top repressor domains were assessed together in one experiment where B2M expression was measured at 7, 14, 19, and 26 days after transfection, and the data shown in Tables 57-60.

HBEGF gene = format: cell-based, human; conditions: HEK293T; HBEGF-targeting spacer; toxin 0-2000 ng/mL
human PCSK9 locus [3] = test: Editing (indel rate by NGS) at the PCSK9 locus in HepG2 cells transfected with CasX 491 mRNA and gRNA; format: cell-based; conditions: CasX 491 mRNA + v1 gRNAs, spacers 6.7 and 6.8, 28 hours
Experimental: (§1) Editing at the PCSK9 locus and consequential effects on secreted PCSK9 levels were assessed for conditions using CasX 491 mRNA co-delivered with a PCSK9-targeting gRNA with scaffold variant 174 compared to conditions where a PCSK9-targeting gRNA with scaffold variant 316 was used. 100 ng of in vitro transcribed mRNA coding for CasX 491 with a P2A and mScarlet fluorescent protein was transfected into HepG2 cells with version 1 (v1) of gRNAs 174-6.7, 174-6.8, 316-6.7, and 316-6.8 (see Table 26) using Lipofectamine™. After a media change, the following were harvested at 28 hours post-transfection: 1) transfected cells were harvested for editing assessment at the PCSK9 locus by NGS (next generation sequencing); and 2) media supernatant was harvested to measure secreted PCSK9 protein levels by ELISA. For editing analysis by NGS, amplicons were amplified from 200 ng of extracted gDNA with a set of primers targeting the PCSK9 locus and processed by NGS (described below). Secreted PCSK9 levels in the media supernatant were also analyzed using a fluorescence resonance energy transfer-based immunoassay from CISBio following the manufacturer's instructions. […]
(§2) V1 through v6 variants of chemically-modified PCSK9-targeting gRNAs (Table 26) were assessed for their effects on editing potency and consequential effects on secreted PCSK9 levels in vitro. […]

6.7/6.8 target dsDNA [4] = test: In vitro cleavage assay of CasX 491 RNPs: cleavage rate (kcleave); format: biochemical; conditions: CasX RNP, 20-fold excess RNP
Experimental: (§3) Double-stranded DNA (dsDNA) targets were formed by mixing the oligos in a 1:1 ratio in 1× cleavage buffer (20 mM Tris HCl PH 7.5, 150 mM NaCl, 1 mM TCEP, 5% glycerol, 10 mM MgCl2), following by heating to 95° C. for 10 minutes, and then allowing the solution to cool to room temperature. CasX ribonucleoproteins (RNPs) were reconstituted with CasX 491 and the indicated gRNAs at a final concentration of 1 μM with 1.2-fold excess of the indicated gRNA in 1x cleavage buffer. RNPs were allowed to form at 37° C. for 10 minutes.
The effects of various structural and chemical modifications to the gRNA scaffold on the cleavage rate of CasX 491 RNPs were determined. Cleavage reactions were prepared with final RNP concentrations of 200 nM and final target concentrations of 10 nM, and reactions were carried out at 16° C. and initiated by the addition of the labeled target DNA substrate (Table 27). Aliquots of reactions were taken at 0.25, 0.5, 1, 2, 5, and 10 minutes and quenched by adding an equal volume of 95% formamide with 20 mM EDTA. Samples were denatured at 95° C. for 10 minutes and resolved on a 10% urea-PAGE gel. Gels were imaged on a Typhoon™ laser-scanner platform and quantified using ImageQuant™ TL 8.2 image analysis software (Cytiva™). The apparent first-order rate constant of non-target strand cleavage (kcleave−) was determined for each CasX:gRNA combination.

human PCSK9 locus [5] = test: Secreted PCSK9 levels in HepG2 cells transfected with CasX 491 mRNA and gRNA; format: cell-based; conditions: CasX 491 mRNA + v1 gRNAs, spacers 6.7 and 6.8, 28 hours
Experimental: as §1, §2

6.7/6.8 target dsDNA [6] = test: In vitro cleavage assay of CasX 491 RNPs: competent (active) fraction; format: biochemical; conditions: spacer 6.7 or 6.8, v1; equimolar RNP and DNA target
Experimental: as §3
To determine the competent fraction formed by each gRNA, cleavage reactions were prepared with final RNP concentrations of 100 nM and final target concentrations of 100 nM. Reactions were carried out at 37° C. and initiated by the addition of the labeled target substrate (Table 27). Aliquots were taken at 0.5, 1, 2, 5, 10, and 30 minutes and quenched by adding an equal volume of 95% formamide with 25 mM EDTA. Samples were denatured by heating at 95° C. for 10 minutes and resolved on a 10% urea-PAGE gel. Gels were imaged and quantified as above. […] The plateau of each fit was determined and reported as the active fraction for each RNP in Table 30.

human B2M locus = test: Editing (indel rate by NGS) at the B2M locus in HepG2 cells treated with LNPs; format: cell-based; conditions: LNPs with CasX 491 mRNA + gRNA spacer 7.9 (v1), highest dose of 250 ng
Experimental: ˜50,000 HepG2 cells, cultured in DMEM/F-12 media containing 10% FBS and 1% PenStrep, were seeded per well in a 96-well plate. The next day, seeded cells were treated with varying concentrations of LNPs, which were prepared in six 2-fold serial dilutions starting at 250 ng. These LNPs were formulated to encapsulate CasX 491 mRNA and a B2M-targeting gRNA incorporating either scaffold variant 174 or 316 with spacer 7.9 (v1; see Table 26). […] Briefly, for editing assessment, amplicons were amplified from 200 ng of extracted gDNA with primers targeting the human B2M locus and processed by NGS using similar methods as described in Example 7.

B2M locus [7] = test: B2M knockout (HLA flow cytometry) in HEK293 cells transduced with AAV; format: cell-based, human; conditions: spacer 7.37, MOI 1E4, 3E3, 1E3 vg/cell, 5 days

B1: CasX 491: catalytically-active CasX variant 491 (protein)
chain: QEIKRINKIRRRLVKDSNTKKAGKTGPMKTLLVRVMTPDLRERLENLRKKPENIPQPISNTSRANLNKLLTDYTEMKKAILHVYWEEFQKDPVGLMSRVAQPASKKIDQNKLKPEMDEKGNLTTAGFACSQCGQPLFVYKLEQVSEKGKAYTNYFGRCNVAEHEKLILLAQLKPEKDSDEAVTYSLGKFGQRALDFYSIHVTKESTHPVKPLAQIAGNRYASGPVGKALSDACMGTIASFLSKYQDIIIEHQKVVKGNQKRLESLRELAGKENLEYPSVTLPPQPHTKEGVDAYNEVIARVRMWVNLNLWQKLKLSRDDAKPLLRLKGFPSFPLVERQANEVDWWDMVCNVKKLINEKKEDGKVFWQNLAGYKRQEALRPYLSSEEDRKKGKKFARYQLGDLLLHLEKKHGEDWGKVYDEAWERIDKKVEGLSKHIKLEEERRSEDAQSKAALTDWLRAKASFVIEGLKEADKDEFCRCELKLQKWYGDLRGKPFAIEAENSILDISGFSKQYNCAFIWQKDGVKKLNLYLIINYFKGGKLRFKKIKPEAFEANRFYTVINKKSGEIVPMEVNFNFDDPNLIILPLAFGKRQGREFIWNDLLSLETGSLKLANGRVIEKTLYNRRTRQDEPALFVALTFERREVLDSSNIKPMNLIGVDRGENIPAVIALTDPEGCPLSRFKDSLGNPTHILRIGESYKEKQRTIQAKKEVEQRRAGGYSRKYASKAKNLADDMVRNTARDLLYYAVTQDAMLIFENLSRGFGRQGKRTFMAERQYTRMEDWLTAKLAYEGLSKTYLSKTLAQYTSKTCSNCGFTITSADYDRVLEKLKKTATGWMTTINGKELKVEGQITYYNRYKRQNVVKDLSVELDRLSEESVNNDISSWTKGRSGEALSLLKKRFSHRPVQEKFVCLNCGFETHADEQAALNIARSWLFLRSQEYKKYQTNKTTGNTDKRAFVETWQSFYRKKLKEVWKPAV
modifications: listed as DNA
For B1, the “reactivation of the B2M gene upon 5-azadC treatment” value (B2M locus [1]) was “did not exhibit reactivation of the B2M gene”, the “Mean % HLA-negative cells” value (B2M locus [2]; 6 days post-transfection) was 76.167% and the “Mean % HLA-negative cells” value (B2M locus [2]; 13 days post-transfection) was 81.167%. The “Mean % HLA-negative cells” value (B2M locus [2]; 20 days post-transfection) was 83.633%, the “Mean % HLA-negative cells” value (B2M locus [2]; 27 days post-transfection) was 80.933% and the “% HLA-negative cells (mean)” value (B2M locus [2]; HEK293T, 50 days post-transfection, spacer 0.0 (non-targeting)) was 0.29%. The “% HLA-negative cells (mean)” value (B2M locus [2]; HEK293T, 50 days post-transfection, spacer 7.37 (B2M)) was 76.57%, the “% HLA-negative cells (mean)” value (B2M locus [2]; HEK293T, 73 days post-transfection, spacer 0.0 (non-targeting)) was 0.71% and the “% HLA-negative cells (mean)” value (B2M locus [2]; HEK293T, 73 days post-transfection, spacer 7.37 (B2M)) was 73.30%. For the same molecule, the “B2M repression (HLA-negative cells)” value (B2M locus [2]; HEK293T, LTRP #1, #4, #5 plasmids and controls, scaffold 174 spacer 7.37, time course to 73 days) was “durable silencing of the B2M expression”, the “repression of B2M expression by day 58” value (B2M locus [2]; HEK293T, plasmid with B2M-targeting gRNA scaffold 174 spacer 7.37) was about 75% and the “protection from diphtheria toxin” value (HBEGF gene) was “protects at all doses”.

B2: scaffold 316: chimeric gRNA scaffold, SEQ ID NO: 1746 (nucleic acid)
guide: ACUGGCGCUUCUAUCUGAUUACUCUGAGCGCCAUCACCAGCGACUAUGUCGUAGUGGGUAAAGCUCCCUCUUCGGAGGGAGCAUCAGAG
modifications: listed as RNA, chemistry not fully specified
For B2, the “increase in editing rate at the PCSK9 locus over scaffold 174” value (human PCSK9 locus [3]) was about 10 percentage point, the “cleavage rate vs scaffold 174” value (6.7/6.8 target dsDNA [4]; spacer 6.7, v1) was “marginally faster cleavage” and the “cleavage rate vs scaffold 174” value (6.7/6.8 target dsDNA [4]; spacer 6.8, v1) was “nearly twice as quickly”. The “reduction of PCSK9 secretion vs scaffold 174” value (human PCSK9 locus [5]) was “more effective reduction of PCSK9 secretion”, the “active fraction of CasX RNPs, higher than scaffold 174” value (6.7/6.8 target dsDNA [6]) was 25-30% and the “editing level at the B2M locus vs scaffold 174” value (human B2M locus) was “nearly two-fold higher”. The “editing at the B2M locus vs scaffold 235” value (B2M locus [7]) was “appeared to improve editing at the B2M locus”.
